From patent publication US20200121712A1, “AGENT TO BE APPLIED TO OPHTHALMIC DEVICE” (SEIKAGAKU CORPORATION, priority 2015, published 2020) come the findings set out here.

The data set relates to mucin. Put plainly: Viscosity increasing effect by interaction with mucin (rotatory viscometer). The format is physicochemical. The note with it: for rate of increase in viscosity (increase in value of viscosity divided by viscosity of sample 3): 1.0 w/v % mixed with 20 w/v % mucin solution (final concentration 0.5 w/v %). The method, then: In general, with respect to a film of a lubricant formed on a friction surface for reducing friction under the maintained state of fluid friction, the higher the viscosity of the lubricant, the higher the stability of the film of the lubricant. Therefore, the friction reducing effect of the cinnamic acid derivative was evaluated using, as an index, the increase in viscosity due to the interaction of the derivative with mucin contained in the tear fluid.
HA-3APC prepared in Example 1 was dissolved in PBS (pH 7.4) to thereby prepare solutions having concentrations of 1 w/v %, 0.5 w/v % and 0.25 w/v %.
Similarly, HA was dissolved in PBS (pH 7.4) to thereby prepare an HA solution having a concentration of 1 w/v %.
0.4 mL of each of these samples (1 w/v % HA-3APC, 0.5 w/v % HA-3APC, 0.25 w/v % HA-3APC and 1 w/v % HA) having added thereto 0.4 mL of 20 w/v % mucin was sample 1 for measurement.
A sample of 0.4 mL of 20 w/v % mucin having added thereto 0.4 mL of PBS was sample 2 for measurement.
A sample prepared in substantially the same manner as in sample 1 for measurement except that 0.4 mL of PBS was added in place of mucin was sample 3 for measurement.
Each sample for measurement was subjected, immediately after thorough mixing, to measurement of viscosity (shear rate: 100 S^−1, temperature: 35° C.) using a rotatory viscometer (ADVANCED RHEOMETER (TA Instruments)), and increase in value of viscosity was obtained by the following formula.
Increase in value of viscosity=μ1−μ2−μ3
μ1: Viscosity of sample 1 for measurement
μ2: Viscosity of sample 2 for measurement
μ3: Viscosity of sample 3 for measurement
Comparison of the strength of the interaction with mucin was carried out between HA and HA-3APC based on the standardized rate of increase in viscosity obtained by dividing the increase in value of viscosity with the viscosity of sample 3 for measurement. Such a means for standardization is frequently used in comparison of interactions with mucin among different test substances (for example, J. Ocul Pharmacol Ther. 2007.23(6): 541-50).

For “HA having covalently bonded thereto a cinnamic acid aminopropyl ester [HA-3APC]”, the “increase in value of viscosity (strength of interaction with mucin)” value (0.25, 0.5 and 1.0 w/v % mixed with 20 w/v % mucin (final 0.125, 0.25, 0.5 w/v %), shear rate 100 S^-1, 35° C.) was “increased depending on the concentration”. Where the note is “1.0 w/v % (final concentration 0.5 w/v %) with 20 w/v % mucin”, the “rate of increase in viscosity relative to that of HA” value is on record as “about 1.5 times”. Besides, the “rate of increase in viscosity (increase in value of viscosity divided by viscosity of sample 3)” value (shear rate 100 S^-1, 35° C.) was found to be 3.65.
“hyaluronic acid [HA, reference compound]”: where the note is “shear rate 100 S^-1, 35° C.”, the “rate of increase in viscosity (increase in value of viscosity divided by viscosity of sample 3)” value was found to be 2.49.
